Key:
[1] = automated whole-cell patch clamp, inactivation width at +80 mV
[2] = cell surface biotinylation, western blot; conditions: glycan lost
[3] = glycan changed form, control: untreated
[4] = glycan changed form, control: low glucose

B1: rat Kv3.4 (rKv3.4): tunicamycin (protein)
parent chain: MISSVCVSSYRGRKSGNKPPSKTCLKEEMAKGEASEKIIINVGGTRHETYRSTLRTLPGTRLAWLADPDGGGRPESDGGGAGSSGSSGGGGGCEFFFDRHPGVFAYVLNYYRTGKLHCPADVCGPLFEEELTFWGIDETDVEPCCWMTYRQHRDAEEALDIFESPDGGGGGAGPGDEAGDDERELALQRLGPHEGGSGPGAGSGGCRGWQPRMWALFEDPYSSRAARVVAFASLFFILVSITTFCLETHEAFNIDRNVTEIHRVGNITSVRFRREVETEPILTYIEGVCVMWFTLEFLVRIVCCPDTLDFVKNLLNIIDFVAILPFYLEVGLSGLSSKAARDVLGFLRVVRFVRILRIFKLTRHFVGLRVLGHTLRASTNEFLLLIIFLALGVLIFATMIYYAERIGARPSDPRGNDHTDFKNIPIGFWWAVVTMTTLGYGDMYPKTWSGMLVGALCALAGVLTIAMPVPVIVNNFGMYYSLAMAKQKLPKKRKKHVPRPPQLESPIYCKSEETSPRDSTYSDTSPPAREEGMVERKRADSKQNGDANAVLSDEEGAGLTQPLASAPTPEERRALRRSGTRDRNKKAAACFLLSAGDYACADGSVQKEGSVEPKACVPVSHTCAL
- other: channel inactivation delay and its heterogeneity ([1]; glycan lost, control: untreated): decreases
- localisation_or_trafficking ([2]; control: untreated): no change

B2: rat Kv3.4 (rKv3.4): N257/266Q (protein)
parent chain: MISSVCVSSYRGRKSGNKPPSKTCLKEEMAKGEASEKIIINVGGTRHETYRSTLRTLPGTRLAWLADPDGGGRPESDGGGAGSSGSSGGGGGCEFFFDRHPGVFAYVLNYYRTGKLHCPADVCGPLFEEELTFWGIDETDVEPCCWMTYRQHRDAEEALDIFESPDGGGGGAGPGDEAGDDERELALQRLGPHEGGSGPGAGSGGCRGWQPRMWALFEDPYSSRAARVVAFASLFFILVSITTFCLETHEAFNIDRNVTEIHRVGNITSVRFRREVETEPILTYIEGVCVMWFTLEFLVRIVCCPDTLDFVKNLLNIIDFVAILPFYLEVGLSGLSSKAARDVLGFLRVVRFVRILRIFKLTRHFVGLRVLGHTLRASTNEFLLLIIFLALGVLIFATMIYYAERIGARPSDPRGNDHTDFKNIPIGFWWAVVTMTTLGYGDMYPKTWSGMLVGALCALAGVLTIAMPVPVIVNNFGMYYSLAMAKQKLPKKRKKHVPRPPQLESPIYCKSEETSPRDSTYSDTSPPAREEGMVERKRADSKQNGDANAVLSDEEGAGLTQPLASAPTPEERRALRRSGTRDRNKKAAACFLLSAGDYACADGSVQKEGSVEPKACVPVSHTCAL
- localisation_or_trafficking ([2]; control: wild type): no change

B3: rat Kv3.4 (rKv3.4): low-glucose medium (protein)
parent chain: MISSVCVSSYRGRKSGNKPPSKTCLKEEMAKGEASEKIIINVGGTRHETYRSTLRTLPGTRLAWLADPDGGGRPESDGGGAGSSGSSGGGGGCEFFFDRHPGVFAYVLNYYRTGKLHCPADVCGPLFEEELTFWGIDETDVEPCCWMTYRQHRDAEEALDIFESPDGGGGGAGPGDEAGDDERELALQRLGPHEGGSGPGAGSGGCRGWQPRMWALFEDPYSSRAARVVAFASLFFILVSITTFCLETHEAFNIDRNVTEIHRVGNITSVRFRREVETEPILTYIEGVCVMWFTLEFLVRIVCCPDTLDFVKNLLNIIDFVAILPFYLEVGLSGLSSKAARDVLGFLRVVRFVRILRIFKLTRHFVGLRVLGHTLRASTNEFLLLIIFLALGVLIFATMIYYAERIGARPSDPRGNDHTDFKNIPIGFWWAVVTMTTLGYGDMYPKTWSGMLVGALCALAGVLTIAMPVPVIVNNFGMYYSLAMAKQKLPKKRKKHVPRPPQLESPIYCKSEETSPRDSTYSDTSPPAREEGMVERKRADSKQNGDANAVLSDEEGAGLTQPLASAPTPEERRALRRSGTRDRNKKAAACFLLSAGDYACADGSVQKEGSVEPKACVPVSHTCAL
- other: channel inactivation delay and its heterogeneity [1, 3]: decreases

B4: rat Kv3.4 (rKv3.4): mannose recovery (protein)
parent chain: MISSVCVSSYRGRKSGNKPPSKTCLKEEMAKGEASEKIIINVGGTRHETYRSTLRTLPGTRLAWLADPDGGGRPESDGGGAGSSGSSGGGGGCEFFFDRHPGVFAYVLNYYRTGKLHCPADVCGPLFEEELTFWGIDETDVEPCCWMTYRQHRDAEEALDIFESPDGGGGGAGPGDEAGDDERELALQRLGPHEGGSGPGAGSGGCRGWQPRMWALFEDPYSSRAARVVAFASLFFILVSITTFCLETHEAFNIDRNVTEIHRVGNITSVRFRREVETEPILTYIEGVCVMWFTLEFLVRIVCCPDTLDFVKNLLNIIDFVAILPFYLEVGLSGLSSKAARDVLGFLRVVRFVRILRIFKLTRHFVGLRVLGHTLRASTNEFLLLIIFLALGVLIFATMIYYAERIGARPSDPRGNDHTDFKNIPIGFWWAVVTMTTLGYGDMYPKTWSGMLVGALCALAGVLTIAMPVPVIVNNFGMYYSLAMAKQKLPKKRKKHVPRPPQLESPIYCKSEETSPRDSTYSDTSPPAREEGMVERKRADSKQNGDANAVLSDEEGAGLTQPLASAPTPEERRALRRSGTRDRNKKAAACFLLSAGDYACADGSVQKEGSVEPKACVPVSHTCAL
- other: channel inactivation delay and its heterogeneity [1, 4]: increases

B5: rat Kv3.4 (rKv3.4): glucose recovery (protein)
parent chain: MISSVCVSSYRGRKSGNKPPSKTCLKEEMAKGEASEKIIINVGGTRHETYRSTLRTLPGTRLAWLADPDGGGRPESDGGGAGSSGSSGGGGGCEFFFDRHPGVFAYVLNYYRTGKLHCPADVCGPLFEEELTFWGIDETDVEPCCWMTYRQHRDAEEALDIFESPDGGGGGAGPGDEAGDDERELALQRLGPHEGGSGPGAGSGGCRGWQPRMWALFEDPYSSRAARVVAFASLFFILVSITTFCLETHEAFNIDRNVTEIHRVGNITSVRFRREVETEPILTYIEGVCVMWFTLEFLVRIVCCPDTLDFVKNLLNIIDFVAILPFYLEVGLSGLSSKAARDVLGFLRVVRFVRILRIFKLTRHFVGLRVLGHTLRASTNEFLLLIIFLALGVLIFATMIYYAERIGARPSDPRGNDHTDFKNIPIGFWWAVVTMTTLGYGDMYPKTWSGMLVGALCALAGVLTIAMPVPVIVNNFGMYYSLAMAKQKLPKKRKKHVPRPPQLESPIYCKSEETSPRDSTYSDTSPPAREEGMVERKRADSKQNGDANAVLSDEEGAGLTQPLASAPTPEERRALRRSGTRDRNKKAAACFLLSAGDYACADGSVQKEGSVEPKACVPVSHTCAL
- other: channel inactivation delay and its heterogeneity [1, 4]: increases

B6: rat Kv3.4 (rKv3.4): siGlut1 (protein)
parent chain: MISSVCVSSYRGRKSGNKPPSKTCLKEEMAKGEASEKIIINVGGTRHETYRSTLRTLPGTRLAWLADPDGGGRPESDGGGAGSSGSSGGGGGCEFFFDRHPGVFAYVLNYYRTGKLHCPADVCGPLFEEELTFWGIDETDVEPCCWMTYRQHRDAEEALDIFESPDGGGGGAGPGDEAGDDERELALQRLGPHEGGSGPGAGSGGCRGWQPRMWALFEDPYSSRAARVVAFASLFFILVSITTFCLETHEAFNIDRNVTEIHRVGNITSVRFRREVETEPILTYIEGVCVMWFTLEFLVRIVCCPDTLDFVKNLLNIIDFVAILPFYLEVGLSGLSSKAARDVLGFLRVVRFVRILRIFKLTRHFVGLRVLGHTLRASTNEFLLLIIFLALGVLIFATMIYYAERIGARPSDPRGNDHTDFKNIPIGFWWAVVTMTTLGYGDMYPKTWSGMLVGALCALAGVLTIAMPVPVIVNNFGMYYSLAMAKQKLPKKRKKHVPRPPQLESPIYCKSEETSPRDSTYSDTSPPAREEGMVERKRADSKQNGDANAVLSDEEGAGLTQPLASAPTPEERRALRRSGTRDRNKKAAACFLLSAGDYACADGSVQKEGSVEPKACVPVSHTCAL
- other: channel inactivation delay and its heterogeneity ([1]; glycan changed form, control: siNeg): decreases

B7: rat Kv3.4 (rKv3.4): kifunensine (Kf) (protein)
parent chain: MISSVCVSSYRGRKSGNKPPSKTCLKEEMAKGEASEKIIINVGGTRHETYRSTLRTLPGTRLAWLADPDGGGRPESDGGGAGSSGSSGGGGGCEFFFDRHPGVFAYVLNYYRTGKLHCPADVCGPLFEEELTFWGIDETDVEPCCWMTYRQHRDAEEALDIFESPDGGGGGAGPGDEAGDDERELALQRLGPHEGGSGPGAGSGGCRGWQPRMWALFEDPYSSRAARVVAFASLFFILVSITTFCLETHEAFNIDRNVTEIHRVGNITSVRFRREVETEPILTYIEGVCVMWFTLEFLVRIVCCPDTLDFVKNLLNIIDFVAILPFYLEVGLSGLSSKAARDVLGFLRVVRFVRILRIFKLTRHFVGLRVLGHTLRASTNEFLLLIIFLALGVLIFATMIYYAERIGARPSDPRGNDHTDFKNIPIGFWWAVVTMTTLGYGDMYPKTWSGMLVGALCALAGVLTIAMPVPVIVNNFGMYYSLAMAKQKLPKKRKKHVPRPPQLESPIYCKSEETSPRDSTYSDTSPPAREEGMVERKRADSKQNGDANAVLSDEEGAGLTQPLASAPTPEERRALRRSGTRDRNKKAAACFLLSAGDYACADGSVQKEGSVEPKACVPVSHTCAL
- other: channel inactivation delay and its heterogeneity [1, 3]: decreases

B8: rat Kv3.4 (rKv3.4): swainsonine (Sw) (protein)
parent chain: MISSVCVSSYRGRKSGNKPPSKTCLKEEMAKGEASEKIIINVGGTRHETYRSTLRTLPGTRLAWLADPDGGGRPESDGGGAGSSGSSGGGGGCEFFFDRHPGVFAYVLNYYRTGKLHCPADVCGPLFEEELTFWGIDETDVEPCCWMTYRQHRDAEEALDIFESPDGGGGGAGPGDEAGDDERELALQRLGPHEGGSGPGAGSGGCRGWQPRMWALFEDPYSSRAARVVAFASLFFILVSITTFCLETHEAFNIDRNVTEIHRVGNITSVRFRREVETEPILTYIEGVCVMWFTLEFLVRIVCCPDTLDFVKNLLNIIDFVAILPFYLEVGLSGLSSKAARDVLGFLRVVRFVRILRIFKLTRHFVGLRVLGHTLRASTNEFLLLIIFLALGVLIFATMIYYAERIGARPSDPRGNDHTDFKNIPIGFWWAVVTMTTLGYGDMYPKTWSGMLVGALCALAGVLTIAMPVPVIVNNFGMYYSLAMAKQKLPKKRKKHVPRPPQLESPIYCKSEETSPRDSTYSDTSPPAREEGMVERKRADSKQNGDANAVLSDEEGAGLTQPLASAPTPEERRALRRSGTRDRNKKAAACFLLSAGDYACADGSVQKEGSVEPKACVPVSHTCAL
- other: channel inactivation delay and its heterogeneity [1, 3]: decreases

B9: rat Kv3.4 (rKv3.4): cytochalasin B (protein)
parent chain: MISSVCVSSYRGRKSGNKPPSKTCLKEEMAKGEASEKIIINVGGTRHETYRSTLRTLPGTRLAWLADPDGGGRPESDGGGAGSSGSSGGGGGCEFFFDRHPGVFAYVLNYYRTGKLHCPADVCGPLFEEELTFWGIDETDVEPCCWMTYRQHRDAEEALDIFESPDGGGGGAGPGDEAGDDERELALQRLGPHEGGSGPGAGSGGCRGWQPRMWALFEDPYSSRAARVVAFASLFFILVSITTFCLETHEAFNIDRNVTEIHRVGNITSVRFRREVETEPILTYIEGVCVMWFTLEFLVRIVCCPDTLDFVKNLLNIIDFVAILPFYLEVGLSGLSSKAARDVLGFLRVVRFVRILRIFKLTRHFVGLRVLGHTLRASTNEFLLLIIFLALGVLIFATMIYYAERIGARPSDPRGNDHTDFKNIPIGFWWAVVTMTTLGYGDMYPKTWSGMLVGALCALAGVLTIAMPVPVIVNNFGMYYSLAMAKQKLPKKRKKHVPRPPQLESPIYCKSEETSPRDSTYSDTSPPAREEGMVERKRADSKQNGDANAVLSDEEGAGLTQPLASAPTPEERRALRRSGTRDRNKKAAACFLLSAGDYACADGSVQKEGSVEPKACVPVSHTCAL
- other: channel inactivation delay and its heterogeneity [1, 3]: decreases

Source: publication PMC12455010
